Measurements reported in patent US20250296958A1, “GL[…] E[…]” (THE ADMINISTRATORS OF THE TULANE EDUCATIONAL FUND, priority 2022, published 2025).

How the values were obtained:
[1] = biological target: delta opioid receptor (UniProt P41143); test: PDSP receptor binding; log of Ki in M
[2] = biological target: delta opioid receptor (UniProt P41143); test: PDSP receptor binding, selectivity against MOR
[3] = biological target: delta opioid receptor (UniProt P41143); test: PDSP receptor binding

Substance ZH853 (peptide) has a Log Ki [1] of -6.57, a del/mu (ratio of Ki at DOR to Ki at MOR) [2] of 291 and a Ki [3] of 271 nM.
